From publication PMC9482650, “Quantitative fragmentomics allow affinity mapping of interactomes” (Nature Communications, 2022)

T1: DFNB31_1, Q9P202
T1 sequence (Q9P202 135-233, limits assumed, looked up): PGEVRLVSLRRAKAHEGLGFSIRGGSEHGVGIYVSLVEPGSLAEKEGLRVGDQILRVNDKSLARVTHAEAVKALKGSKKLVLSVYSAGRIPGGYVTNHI

T2: DLG3_1, Q92796
T2 sequence (Q92796 125-227, limits assumed, looked up): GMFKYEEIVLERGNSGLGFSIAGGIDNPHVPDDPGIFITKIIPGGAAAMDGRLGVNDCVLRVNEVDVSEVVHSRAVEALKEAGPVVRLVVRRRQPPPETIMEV

T3: DLG3_2, Q92796
T3 sequence (Q92796 221-321, limits assumed, looked up): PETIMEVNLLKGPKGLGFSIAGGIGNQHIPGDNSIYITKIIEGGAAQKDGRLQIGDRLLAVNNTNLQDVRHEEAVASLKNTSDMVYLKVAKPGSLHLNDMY

T4: GRIP1_2, Q9Y3R0
T4 sequence (Q9Y3R0 145-248, limits assumed, looked up): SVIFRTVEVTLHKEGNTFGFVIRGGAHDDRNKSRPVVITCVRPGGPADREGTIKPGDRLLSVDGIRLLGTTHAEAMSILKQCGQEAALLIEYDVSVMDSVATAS

T5: GRIP1_4, Q9Y3R0
T5 sequence (Q9Y3R0 467-571, limits assumed, looked up): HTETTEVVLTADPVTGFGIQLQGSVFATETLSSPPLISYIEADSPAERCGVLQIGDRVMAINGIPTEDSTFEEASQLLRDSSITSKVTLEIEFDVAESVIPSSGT

T6: HTRA3, P83110
T6 sequence (P83110 354-453, limits assumed, looked up): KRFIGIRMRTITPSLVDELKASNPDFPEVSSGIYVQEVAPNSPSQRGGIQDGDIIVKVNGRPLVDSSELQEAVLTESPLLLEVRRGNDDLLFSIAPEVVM

T7: LIN7B, Q9HAP6
T7 sequence (Q9HAP6 88-185, limits assumed, looked up): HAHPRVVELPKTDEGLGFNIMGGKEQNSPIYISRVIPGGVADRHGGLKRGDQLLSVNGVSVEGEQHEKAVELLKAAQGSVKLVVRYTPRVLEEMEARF

T8: MPDZ_10, O75970
T8 sequence (O75970 1624-1722, limits assumed, looked up): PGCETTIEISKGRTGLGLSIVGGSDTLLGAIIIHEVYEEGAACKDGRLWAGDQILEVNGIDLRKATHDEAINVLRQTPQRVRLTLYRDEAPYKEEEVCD

T9: PARD3B_1, Q8TEW8
T9 sequence (Q8TEW8 196-299, limits assumed, looked up): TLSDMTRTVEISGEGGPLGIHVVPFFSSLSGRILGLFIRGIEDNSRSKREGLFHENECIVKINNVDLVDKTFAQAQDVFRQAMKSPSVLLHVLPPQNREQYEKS

T10: PTPN13_1, Q12923
T10 sequence (Q12923 1088-1188, limits assumed, looked up): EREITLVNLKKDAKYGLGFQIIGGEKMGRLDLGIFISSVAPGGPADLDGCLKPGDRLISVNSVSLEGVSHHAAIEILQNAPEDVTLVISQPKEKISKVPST

T11: RHPN1, Q8TCX5
T11 sequence (Q8TCX5 508-602, limits assumed, looked up): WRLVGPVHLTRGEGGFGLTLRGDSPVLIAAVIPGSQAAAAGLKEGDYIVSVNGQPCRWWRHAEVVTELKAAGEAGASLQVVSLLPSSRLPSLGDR

T12: SYNJ2BP, P57105
T12 sequence (P57105 8-110, limits assumed, looked up): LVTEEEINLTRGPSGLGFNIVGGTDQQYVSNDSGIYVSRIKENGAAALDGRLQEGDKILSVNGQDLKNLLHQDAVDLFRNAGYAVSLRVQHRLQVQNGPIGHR

B1: TRAF7, Q6Q0C0 (peptide)
chain: VDSTVKVWTC
B2: BAZ1A, Q9NRL2 (peptide)
chain: TPPAAKKSRI
B3: CTNNA1, P35221 (peptide)
chain: LSEFKAMDSI

These binders were tested against T1, DFNB31_1, Q9P202 (assay: holdup assay). Conditions: plain residues with an end cap or a label only (N-terminal biotin on a linker: ado-ado).
Set-up: key: below the threshold = too weak to quantify, mostly under pKd 3.1 to 4

Binder | pKd
B1 | 3.58
B2 | 3.68
B3 | below the threshold

Each binder was assayed against DLG1_3, Q12959 (assay: holdup assay). Conditions: plain residues with an end cap or a label only (N-terminal biotin on a linker: ado-ado).
Set-up: key: below the threshold = too weak to quantify, mostly under pKd 3.1 to 4

Sequence of DLG1_3, Q12959 (Q12959 457-571): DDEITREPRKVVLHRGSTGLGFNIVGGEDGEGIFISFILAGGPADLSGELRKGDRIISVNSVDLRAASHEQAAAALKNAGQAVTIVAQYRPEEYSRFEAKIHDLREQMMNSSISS

Binder | pKd
B1 | below the threshold
B2 | 3.81
B3 | below the threshold

These binders were tested against T2, DLG3_1, Q92796 (assay: holdup assay). Conditions: plain residues with an end cap or a label only (N-terminal biotin on a linker: ado-ado).
Set-up: key: below the threshold = too weak to quantify, mostly under pKd 3.1 to 4

Binder | pKd
B1 | below the threshold
B2 | 3.53
B3 | below the threshold

These binders were tested against T3, DLG3_2, Q92796 (assay: holdup assay). Conditions: plain residues with an end cap or a label only (N-terminal biotin on a linker: ado-ado).
Set-up: key: below the threshold = too weak to quantify, mostly under pKd 3.1 to 4

Binder | pKd
B1 | 4.18
B2 | below the threshold
B3 | 3.56

These binders were tested against DLG4_1, P78352 (assay: holdup assay). Conditions: plain residues with an end cap or a label only (N-terminal biotin on a linker: ado-ado).
Set-up: key: below the threshold = too weak to quantify, mostly under pKd 3.1 to 4

Sequence of DLG4_1, P78352 (P78352 62-152): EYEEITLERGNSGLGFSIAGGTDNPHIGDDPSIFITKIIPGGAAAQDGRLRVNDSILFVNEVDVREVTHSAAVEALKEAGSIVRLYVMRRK

Binder | pKd
B1 | below the threshold
B2 | below the threshold
B3 | below the threshold

Each binder was assayed against GORASP2, Q9H8Y8 (assay: holdup assay). Conditions: plain residues with an end cap or a label only (N-terminal biotin on a linker: ado-ado).
Set-up: key: below the threshold = too weak to quantify, mostly under pKd 3.1 to 4

Binder | pKd
B1 | 4.88
B2 | below the threshold
B3 | below the threshold

What follows are binders tested against T4, GRIP1_2, Q9Y3R0 (assay: holdup assay). Conditions: plain residues with an end cap or a label only (N-terminal biotin on a linker: ado-ado).
Set-up: key: below the threshold = too weak to quantify, mostly under pKd 3.1 to 4

Binder | pKd
B1 | below the threshold
B2 | below the threshold
B3 | below the threshold

The binders below were run against T5, GRIP1_4, Q9Y3R0 (assay: holdup assay). Conditions: plain residues with an end cap or a label only (N-terminal biotin on a linker: ado-ado).
Set-up: key: below the threshold = too weak to quantify, mostly under pKd 3.1 to 4

Binder | pKd
B1 | below the threshold
B2 | below the threshold
B3 | below the threshold

Each binder was assayed against HTRA1, Q92743 (assay: holdup assay). Conditions: plain residues with an end cap or a label only (N-terminal biotin on a linker: ado-ado).
Set-up: key: below the threshold = too weak to quantify, mostly under pKd 3.1 to 4

Sequence of HTRA1, Q92743 (Q92743 360-477): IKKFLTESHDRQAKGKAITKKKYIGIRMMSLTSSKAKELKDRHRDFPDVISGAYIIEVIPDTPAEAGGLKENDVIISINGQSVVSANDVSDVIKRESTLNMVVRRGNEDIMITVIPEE

Binder | pKd
B1 | 5.61
B2 | below the threshold
B3 | below the threshold

Each binder was assayed against T6, HTRA3, P83110 (assay: holdup assay). Conditions: plain residues with an end cap or a label only (N-terminal biotin on a linker: ado-ado).
Set-up: key: below the threshold = too weak to quantify, mostly under pKd 3.1 to 4

Binder | pKd
B1 | 5.13
B2 | below the threshold
B3 | below the threshold

What follows are binders tested against IL16_1, Q14005 (assay: holdup assay). Conditions: plain residues with an end cap or a label only (N-terminal biotin on a linker: ado-ado).
Set-up: key: below the threshold = too weak to quantify, mostly under pKd 3.1 to 4

Sequence of IL16_1, Q14005 (Q14005 210-306): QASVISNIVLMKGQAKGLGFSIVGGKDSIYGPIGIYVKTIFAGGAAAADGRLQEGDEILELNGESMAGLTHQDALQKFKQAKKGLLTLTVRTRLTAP

Binder | pKd
B1 | below the threshold
B2 | below the threshold
B3 | below the threshold

The binders below were run against Inadl_10, Q8NI35 (assay: holdup assay). Conditions: plain residues with an end cap or a label only (N-terminal biotin on a linker: ado-ado).
Set-up: key: below the threshold = too weak to quantify, mostly under pKd 3.1 to 4

Sequence of Inadl_10, Q8NI35 (Q8NI35 1673-1763): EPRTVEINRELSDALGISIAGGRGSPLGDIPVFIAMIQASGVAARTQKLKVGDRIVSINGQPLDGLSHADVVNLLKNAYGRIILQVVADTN

Binder | pKd
B1 | below the threshold
B2 | below the threshold
B3 | below the threshold

These binders were tested against Inadl_5, Q8NI35 (assay: holdup assay). Conditions: plain residues with an end cap or a label only (N-terminal biotin on a linker: ado-ado).
Set-up: key: below the threshold = too weak to quantify, mostly under pKd 3.1 to 4

Sequence of Inadl_5, Q8NI35 (Q8NI35 673-780): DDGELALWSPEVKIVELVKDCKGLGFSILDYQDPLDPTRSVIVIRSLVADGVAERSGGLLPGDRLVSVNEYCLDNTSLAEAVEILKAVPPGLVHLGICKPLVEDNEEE

Binder | pKd
B1 | below the threshold
B2 | below the threshold
B3 | below the threshold

What follows are binders tested against Inadl_9, Q8NI35 (assay: holdup assay). Conditions: plain residues with an end cap or a label only (N-terminal biotin on a linker: ado-ado).
Set-up: key: below the threshold = too weak to quantify, mostly under pKd 3.1 to 4

Sequence of Inadl_9, Q8NI35 (Q8NI35 1530-1615): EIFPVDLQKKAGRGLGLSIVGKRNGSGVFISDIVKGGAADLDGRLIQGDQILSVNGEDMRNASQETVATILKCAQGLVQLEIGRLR

Binder | pKd
B1 | 3.68
B2 | below the threshold
B3 | below the threshold

The binders below were run against LAP2, Q96RT1 (assay: holdup assay). Conditions: plain residues with an end cap or a label only (N-terminal biotin on a linker: ado-ado).
Set-up: key: below the threshold = too weak to quantify, mostly under pKd 3.1 to 4

Sequence of LAP2, Q96RT1 (Q96RT1 other isoform, or with tags, fused parts or gaps): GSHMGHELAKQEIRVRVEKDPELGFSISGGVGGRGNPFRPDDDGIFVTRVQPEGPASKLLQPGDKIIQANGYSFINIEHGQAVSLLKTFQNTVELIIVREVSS

Binder | pKd
B1 | below the threshold
B2 | below the threshold
B3 | below the threshold

What follows are binders tested against T7, LIN7B, Q9HAP6 (assay: holdup assay). Conditions: plain residues with an end cap or a label only (N-terminal biotin on a linker: ado-ado).
Set-up: key: below the threshold = too weak to quantify, mostly under pKd 3.1 to 4

Binder | pKd
B1 | 3.64
B2 | 3.62
B3 | 3.74

These binders were tested against T8, MPDZ_10, O75970 (assay: holdup assay). Conditions: plain residues with an end cap or a label only (N-terminal biotin on a linker: ado-ado).
Set-up: key: below the threshold = too weak to quantify, mostly under pKd 3.1 to 4

Binder | pKd
B1 | below the threshold
B2 | 3.69
B3 | below the threshold

These binders were tested against NHERF4_4, Q86UT5 (assay: holdup assay). Conditions: plain residues with an end cap or a label only (N-terminal biotin on a linker: ado-ado).
Set-up: key: below the threshold = too weak to quantify, mostly under pKd 3.1 to 4

Sequence of NHERF4_4, Q86UT5 (Q86UT5 464-550): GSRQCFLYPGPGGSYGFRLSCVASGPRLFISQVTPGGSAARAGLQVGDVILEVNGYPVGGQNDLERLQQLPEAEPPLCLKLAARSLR

Binder | pKd
B1 | 3.62
B2 | below the threshold
B3 | below the threshold

Each binder was assayed against NOS1, P29475 (assay: holdup assay). Conditions: plain residues with an end cap or a label only (N-terminal biotin on a linker: ado-ado).
Set-up: key: below the threshold = too weak to quantify, mostly under pKd 3.1 to 4

Sequence of NOS1, P29475 (P29475 9-101): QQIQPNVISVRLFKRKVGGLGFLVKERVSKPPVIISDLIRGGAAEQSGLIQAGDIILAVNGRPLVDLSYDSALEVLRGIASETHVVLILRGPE

Binder | pKd
B1 | below the threshold
B2 | 3.51
B3 | below the threshold

These binders were tested against T9, PARD3B_1, Q8TEW8 (assay: holdup assay). Conditions: plain residues with an end cap or a label only (N-terminal biotin on a linker: ado-ado).
Set-up: key: below the threshold = too weak to quantify, mostly under pKd 3.1 to 4

Binder | pKd
B1 | 4.42
B2 | below the threshold
B3 | below the threshold

Each binder was assayed against T10, PTPN13_1, Q12923 (assay: holdup assay). Conditions: plain residues with an end cap or a label only (N-terminal biotin on a linker: ado-ado).
Set-up: key: below the threshold = too weak to quantify, mostly under pKd 3.1 to 4

Binder | pKd
B1 | below the threshold
B2 | below the threshold
B3 | below the threshold

These binders were tested against T11, RHPN1, Q8TCX5 (assay: holdup assay). Conditions: plain residues with an end cap or a label only (N-terminal biotin on a linker: ado-ado).
Set-up: key: below the threshold = too weak to quantify, mostly under pKd 3.1 to 4

Binder | pKd
B1 | below the threshold
B2 | 3.61
B3 | below the threshold

The binders below were run against T12, SYNJ2BP, P57105 (assay: holdup assay). Conditions: plain residues with an end cap or a label only (N-terminal biotin on a linker: ado-ado).
Set-up: key: below the threshold = too weak to quantify, mostly under pKd 3.1 to 4

Binder | pKd
B1 | below the threshold
B2 | below the threshold
B3 | below the threshold

Each binder was assayed against TJP1_3, Q07157 (assay: holdup assay). Conditions: plain residues with an end cap or a label only (N-terminal biotin on a linker: ado-ado).
Set-up: key: below the threshold = too weak to quantify, mostly under pKd 3.1 to 4

Sequence of TJP1_3, Q07157 (Q07157 416-512): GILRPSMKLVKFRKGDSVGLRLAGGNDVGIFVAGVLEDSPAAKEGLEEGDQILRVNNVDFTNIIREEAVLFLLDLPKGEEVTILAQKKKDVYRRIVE

Binder | pKd
B1 | below the threshold
B2 | below the threshold
B3 | below the threshold

What follows are binders tested against TJP2_1, Q9UDY2 (assay: holdup assay). Conditions: plain residues with an end cap or a label only (N-terminal biotin on a linker: ado-ado).
Set-up: key: below the threshold = too weak to quantify, mostly under pKd 3.1 to 4

Sequence of TJP2_1, Q9UDY2 (Q9UDY2 24-128): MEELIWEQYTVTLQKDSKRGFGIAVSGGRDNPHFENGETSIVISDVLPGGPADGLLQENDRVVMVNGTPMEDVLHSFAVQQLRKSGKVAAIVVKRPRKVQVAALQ

Binder | pKd
B1 | below the threshold
B2 | below the threshold
B3 | below the threshold
